Reference: the domain aggregation screens of Martell et al. (2025)

Assay: soluble fraction after stress (log2 fold change); higher = more stays soluble; pooled small domains, quantitative proteomics
Details: stress: pH 4
Outline: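 Values are on a log2 scale, where higher means more of the domain stayed soluble after pH 4 stress. They are fold changes in the soluble amount of each domain from pooled custom libraries, measured by high-throughput quantitative proteomics. The fold change is taken to reflect aggregation propensity.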

| Sequence | soluble fraction (log2) |
| --- | --- |
| HMKSIEVPNLINMTLRKAKIELIDNEFNLDTVIYEYNPNIREGRVSLQIPESGTILKSGSNISIHISKGIP | -0.32 |
| HMDAVSYTQFMQDAKAGRIKKVIVHQSGILDVTTTEGRRFNLTSPGDLWMVGDLVKDGVDVVGAP | 0.139 |
| HMSVKYLQIYHAIREKILSNEYAINQQLPDEITLTKEFNSSRMTVKKALDLLVSEGLIFRKRGQGTFVLSR | ≥ 0.43 |
| HMSTFAQNLRALMEKRGVSQNELARSAGLTQSAINKILTGKTKQPGIDTTEAIARVLNVSVAQLIYT | 0.22 |
| HMSSSKVAISQFEELVDQGQVREVVIEGSTATGTTAAGRRFAAEIPPGGMELFLSKLDDAGTTYEYSPP | 0.127 |
| HMKPQKRYLFEEVLTFLKHNSEKSFNYKQLGAAMEISNESDRFTLLETLEELKHQGFVVEKEIGKYQAKE | 0.37 |
| HMKDMKISTQNILKELATNYPDQTAFRKNVIESTAKSMGYTGKDFYPMLTAETRVKIGTYDLSALLQTV | -0.197 |
| HMDKLFNRQTLGGVELTQKQIEDLNAGKAIFVEGMQRKDGEVFSSYVKLDEATGRPSYTRYNPDSP | 0.0109 |
| HMNSKSFIFHIEDEEGIRLDVFLADNLPDVSRSYVQKLIDEEHVKVNGQSAKSRLKTVSGMEITVDVPAPK | -0.543 |
| HMTQTAVFSKGEQEYYFPLSKVLFFETDGNTINVHTADDIYETRYRLYELEEMLPGSFMRISKSAVVNTNR | -0.161 |
| HMGLYPYSGTPADNQEANERRIFDIYSTHLERIFSDFSGATLRTKRLVLRLMQELVHSDPVRMAGILDEL | 0.1 |
| HMDLPDFTSRERDILARVVQGDSNERIAASLGVSVSTVKTHIGNILRKTGQTNRVRLIVWATRHL | -0.37 |
| HMSGSILVQVSATDLNIRKGPGTNYGTTGKYTGKGTFTIVETRSGQGSNAGWGKLKSGAGWISLDYAKR | -0.0233 |
| HMYKDVVVPNTVGDSEEKAYQTLSALGLVVNITYDEDASKSDRVVTSQNPTNKTIKEGESVNIVVNKQP | -0.242 |
| HMKKATYDVMVREALVSFKKKGATLQSIKKKIKADYAIEANATAVKSAIQKGMEAGSIRKSYDLYFFMD | 0.15 |
| HMEDEVSSSAAYQALLEKGVSKTLARSWVIDYGEAYVLDKVDLTTSQAARGKIKSSTAGFLKAAIEEDFHN | -0.765 |
| HMRPQYVDLFTKLSAEEAGAITSKLKELKVEYQLADNGSTIKVPQKDAAEIRLELANEGLPA | -0.283 |
| HMTQHDIVPLMLKMVDVLTQFVELDIPFLQQERQTRLAALNAMMGRADVSLAEKYRRIMEAYQVETEYG | -0.254 |
| HMQDEAQLSMSNKYIFEGNSIVKDNFIEAEKKYRLGVSAKPNNAVGSYNLANAYYNSKLYDEAMLRLL | -0.179 |
| HMAQVSDTGAIAKIVADAIAANPKQVQQYLDGNEKVLMYLVGQVMKLSKGKANPPMVIQLLKEQLG | -0.0882 |
| HMFPELSEEEQIIVSLLQKQPDGLQINTLVVESNIPVNRMSGILFELEMKGIIRMAAGGVYRLL | -0.785 |
| HMEMVSMPGLTGSTLEFATKTLTENELKYEVVYIVDASAESGLIIRTYPTEGEMVSKKTSTIYLYIKE | -0.481 |
| HMDPDDEILINIMTKLLTEKQIIIKNKEIFNFLLKRINRTYEEVYNLINKMDKLSLEKKKQLTIPSIKEL | -1.52 |
| HMALQDKYKELTDAATAAGVTDLQVREQDNVLYIDGTAPSGAVKDQLWAIYDKIDPNFVSGDLVLNVNVD | -0.49 |
| HMKKAMIISTKRGTPAAELDKIIREFEAKGLSVTMIRGTDYNVFGLVGDTTVIDEKQVRANPYVENVQRV | -0.325 |

| Sequence | soluble fraction (log2) |
| --- | --- |
| HMPPQPATQNTKAQVMQLAREKELMAGEGRGANVEALEKFANEHGISLRGMTEEQAEQLVKLLMEYTP | 0.19 |
| HMQFYSGLEARLMDPNTPEVFDDPISLMAFLQQKNISRVELEDNLLLPYLKEMAGQPIPKAELLEIIRK | -2.19 |
| HMDGIGLRVRMIREGVGLTQKQLAEHLGMQRTALVQVEAGSRKLSASELIGVARFFNITVEQFLDPEK | -1.72 |
| HMRGGKGTVPDVTGMDAAAAVRILEKAGMNVAYIRGAGFVAEQTPAAGTKLKKGDKAYITLSWK | 0.181 |
| HMFDNPLSERDKEILNHISMGKSNKEIANQVGLAEQTIKNTISVILDKTFTSNRAQAASMATKNKW | -0.0659 |
| HMTTIFDNINGELRRRHLTQQDLAKTIEIDRRTWSKWQDKNDMPASVLLQIAKWLNVTLDYLTRD | 0.0559 |
| HMLDPVLQREKDESFTDYHIRLFKNKDTYHIDTKTIATLLNKDQGTNYDESKWRKDFKQYERWNDYIMSKN | -0.155 |
| HMSSDEAEYKLLLGQEGVAKSPLRPSGVVDFSGRRLDVQTLGDFIESGETVVVKQVNGHRVLVERK | 0.0409 |
| HMISVTNRTGTGLNDVKVEVFPVGRQMVFSATVFRVESEATNRFSLGELRGSDGTPFNQRVHRPESI | -0.07 |
| HMNLYENLATHVKNAIRQGVYQPGDRLPSVRRLSEQHRVSQNTAVSAYRLLESHGWLEARPQSGFFARHP | 0.297 |
| HMDDFITLVIHTPAHAQNLRNILESHGMEVRLEDFVSFKSPVAVAQRVKIRPKDLPLALKIIESGE | 0.126 |
| HMGDDVRKNILDVLSKFERVDITDLDSLELVRFYLEIEDIFDIEIKENDFYRLKSVDSIVDYIRNKSFF | -1.64 |
| HMGQTDTIIKTTTDLYYEMSTMSDDDKLVVAQTLRDVWMAVGRWSGKLSKKQREKVAEVKRVLGE | -0.5 |
| HMGHRQRRARARNRSMLEDIPGLGPKRRQQLLRQFGGLPQLMRAGVAELSQVPGISDSLARKIHAELHPES | -1.87 |
| HMKNFAPVWGEEGAEFGKEVDTGFRLRIVEKEKDVNDLFEVIQKHTIQSQWKPGSTGTESIYKRI | -1.35 |
| HMSVPRVWTDIQGRRVKGDFEGLRGDLVVLRVGGKSYAFPLVRLIASDQAYARSLVAGNPSK | 0.22 |
| HMLENIVFTNKFKNKRLDVLLVDMKLVSSRQKAVSLIMRGNVFVEEERADKPGKIIKLNQTISLKK | ≥ 0.43 |
| HMEVENAQLLARLTPQEHRVFERVVAGLSNREIGSEMDISIKTVEVHRARVMRKLEANSVAELVRFHIHN | -0.811 |
| HMGKEDLTAAIKKMTLNDKLDIHKIVANFQTNDSEEVITAVKWLMENNYLLKIKNNYTWNTKEK | 0.22 |
| HMSDMIGQNIRRLRTEKQMTQKALADKLFVTAQAVSRWENGEVEPSLSTVTEIARIFNVSADEILGI | -0.284 |
| HMISENFVEAKILLTEDNRPKSLEILKDIIRQHDKVYSPLSLFLILDEDLEENKEIILEYFDLVLS | -1.38 |
| HMPSEQGANKARDIIFRHHMKVDVWVGSWENARNYAEQAIKQGVKVIISRGGTAALLRHSLDTAIIKVR | 0.22 |
| HMKRTMVEAAMVAKLFNLTVRRIQQLTQDGVLTTELVDKKRRYDLLLTVQKYIAYLQEKVAK | ≥ 0.43 |
| HMNDTLQEYFEALERLKSNNPINVPKNTKINNDSVALEAGRKRGSIKKSREIFAELIEAINNAS | -0.186 |
| HMQDFEQNLFDGKSIYDRMLSKFSLHNVDVKQLVAHFKRKDTEQFFADIGRGLITSAQMLGFLQT | -0.219 |

| Sequence | soluble fraction (log2) |
| --- | --- |
| HMGETISVPAVRSLAYDRAVDMLTAEGLKGIVADSVYDNRTQPGTVIEQNPKAGTIVKEGREVYLTINA | 0.0278 |
| HMSLSASELDQLRMMTKVSHMYHTRGMVQIDIARSLGLSQARVSRLLSAAEDANIVRTVVVA | -0.177 |
| HMTEWSIHEVAQRSGVTTRTLRHYDAIGILSPTRTGANGYRYYGPEALVRLQRILLLRDLGLALSDIAE | -1.66 |
| HMNRIARRELMEQLFADNKITTQEQLQQLLRAEGVEVTQATISRDMRILNIVKVSDQNGNTYYKQMK | 0.0823 |
| HMKEAITVIGGKNNITFDASAQAEIGIYSMDGVQIQKKTISDNERIDLPAGMYVVTVKTGQANVSKVVVV | -0.145 |
| HMNDVLVGAIPESASGSRLDKVMPSVFPPYSRSQLQVWLKQGRILMGNGIPSPRLIVSGGEVLSLVVPELP | -0.244 |
| HMNYGDVIEGQIMHVDRDELLVDIGSKSEGIIPAREFSTLTDEERAALSVGDHVLVFVVQAENQEGQAV | 0.0111 |
| HMGAISGEQREFYTVFRGHLNSHVGEFKVEDIENLLMKAKTEVPDLLEEEFLKMGEAILNRYRN | -0.966 |
| HMDYEVPEELEEKFSENPQFKEAFDNLTPGRQHQYIYHISQAKRSQTRINRIEKYYEHILNGKGMQD | 0.416 |
| HMGSLGRAIRSRREKMKVGLEELAAKTGLSESHISDIEEGRGFAPVGDILKIARALTIDPGELLK | 0.426 |
| HMSTQVPDVKERSQEEARSILESAGFKVTPAVKTEDSADIAKDMVTKTDPAAGQSVPKGTTITIYVSS | 0.298 |
| HMITNEDINIKKLLVVMKDTPLSANEIMDKLNIKSKETLRNMYLDPAIKKGLINLTIPDKPTSKNQKYYK | 0.22 |
| HMPVISGQDLRVLIRDTGRERDQGISFLDDGTMVVVEDARRLIGQEVTATVTRVHQTQTGRIVFAHLSN | -0.698 |
| HMGVRVEVDAVTPPGAMASGSVVFSDGESKKWSVDQFGRLAMTGGAPDYKPSDQDVMEFQQQLEQSL | -0.57 |
| HMVREVSYDQFLHFVEAKQVGMVYQDGESLMFTLKEDVEKEWGVTAYKTGLWPDANLTDRLLDAGVVFS | -1.65 |
| HMETLYGQIVNDIMEKIESNAWPVGYVIPTESDFQKQYGVSRATVRNAILKLAHLGYLVRKKGSGTYVTRP | -0.287 |
| HMNAVYAEERRAYILAALEKRGTVHSYELAEQMGVSRETIRRDIMELSNRGLLVKTHGGAIST | -0.352 |
| HMKDYKTIFQELIQKKHKTSPIYKSYEYNDMFKAEVYVNDKSFADGIGKSKKEAETDAAKKALEKIEMA | 0.0809 |
| HMRSRHYRFSTPFLDRLIAEIDWNSDNALSIFNQKLVHFDFLKYFSAIQPGSIVEIENLNFIWTGKRLEAH | -0.71 |
| HMQEDKSKYLFQRGTAITVLRPAGIVRIGKERVDAVSNGSYIDRGVAVRVIEVEGTRVVVEPVPE | -0.151 |
| HMQVITEPFQEKYREFINMSTVTQRLEERETLSFTAQTVEGRWLTIIIVPQGYDKTGKLSTVLVANR | 0.111 |
| HMDADRILHKTLKPRELEIYQLIKAYLEEHSQIANAKVQEISGLSEATTRRYLNIFVEFGLLKTS | -0.164 |
| HMQSHGSRIWTDITGNFTREASFIELAEGKVTLQLTDGRRTIISFEILSKKDQEYVLDIGDS | -1.95 |
| HMDVFTAKTASHIQELREKLGQQAVFGRSDVQNALGLKATRSSALLREMAEHGIIEPVTGYGKGRYHFRS | 0.361 |
| HMNTVAKELATQATQAKKRAFLDAYAETGIIKRAAEIAGIERKSHYLWLEKDPEYVEAFKSAGEQ | -0.0116 |
